The values that follow come from article PMC7116848 (Nature, 2019).

In general, Kd refers to the constant that tells how readily two partners part at equilibrium. A low value points to tighter binding.

Series [1] concerns the target T1, Mgm1 (truncated s-Mgm1) (Thermochaetoides thermophila, UniProt G0SGC7).
T1 sequence (G0SGC7 219-912): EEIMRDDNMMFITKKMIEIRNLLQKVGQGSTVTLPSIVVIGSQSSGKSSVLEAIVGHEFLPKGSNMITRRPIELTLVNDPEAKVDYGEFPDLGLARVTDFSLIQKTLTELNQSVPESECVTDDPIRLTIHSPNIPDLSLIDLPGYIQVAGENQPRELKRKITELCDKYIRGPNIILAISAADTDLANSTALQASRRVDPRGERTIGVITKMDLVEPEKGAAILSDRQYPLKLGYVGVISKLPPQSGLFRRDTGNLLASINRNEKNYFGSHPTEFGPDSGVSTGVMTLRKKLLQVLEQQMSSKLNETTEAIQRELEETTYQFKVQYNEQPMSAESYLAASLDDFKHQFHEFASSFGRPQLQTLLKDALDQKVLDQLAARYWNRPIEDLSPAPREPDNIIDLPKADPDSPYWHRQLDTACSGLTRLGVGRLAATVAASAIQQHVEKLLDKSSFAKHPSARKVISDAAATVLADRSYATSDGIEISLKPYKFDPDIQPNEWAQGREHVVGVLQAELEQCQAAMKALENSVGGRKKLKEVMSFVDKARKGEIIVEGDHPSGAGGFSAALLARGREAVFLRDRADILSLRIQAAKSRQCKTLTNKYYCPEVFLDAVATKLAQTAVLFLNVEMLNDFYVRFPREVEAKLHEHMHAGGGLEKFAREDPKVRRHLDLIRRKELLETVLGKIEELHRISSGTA
Put plainly: isothermal titration calorimetry. The class given is binding.

Series [2] deals with the molecule itself. Nature of the series: AUC.
Series [3] concerns the molecule itself. Nature of the series: crystal structure.

In series [1], `Nc1nc2c(ncn2[C@@H]2O[C@H](COP(=O)(O)OP(=O)(O)OP(O)(O)=S)[C@@H](O)[C@H]2O)c(=O)[nH]1` [GTPγS] yielded a Kd of 9 ± 3 µM.

B1: Chaetomium thermophilum Mgm1 (amino acids 219-912), truncated s-Mgm1 isoform (domain or fragment, UniProt G0SGC7 219-912, looked up)
chain: T1 sequence (G0SGC7 219-912)
The molecule B1 displayed a Kd in series [2] of 1 µM.

B2: Seleno-methionine substituted Chaetomium thermophilum Mgm1 (amino acids 219-912) (domain or fragment, UniProt G0SGC7 219-912, looked up)
chain: T1 sequence (G0SGC7 219-912)
modifications: seleno-methionine substituted for methionine
In the case of B2, the binding result in series [3] is on record as “binds”.
